1 molecule from US20060189522A1 (IMPERIAL INNOVATIONS, published 2006) can be followed below.

Assay [1] addresses T1, GLP-1 receptor in rat hypothalamic membrane preparations (rat, UniProt P32301 22-463).
T1 construct: whole, on cells; Native receptor in a rat hypothalamic membrane preparation, not intact cells and not a recombinant construct; also called GLP-receptor; GLP-IR
T1 sequence (looked up): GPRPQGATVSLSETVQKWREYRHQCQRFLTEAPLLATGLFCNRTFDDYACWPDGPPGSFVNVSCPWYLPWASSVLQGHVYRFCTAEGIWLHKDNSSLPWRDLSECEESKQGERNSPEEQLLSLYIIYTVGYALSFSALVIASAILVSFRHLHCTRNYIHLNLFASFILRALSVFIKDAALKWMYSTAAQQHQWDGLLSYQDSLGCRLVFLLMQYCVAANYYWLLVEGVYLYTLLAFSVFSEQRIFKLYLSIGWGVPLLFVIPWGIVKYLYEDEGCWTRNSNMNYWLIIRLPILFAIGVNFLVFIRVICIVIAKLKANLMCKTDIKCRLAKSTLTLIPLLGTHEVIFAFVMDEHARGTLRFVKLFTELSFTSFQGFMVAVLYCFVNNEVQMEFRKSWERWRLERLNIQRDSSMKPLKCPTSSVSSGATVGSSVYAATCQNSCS
Nature of the assay: competition with [125I]GLP-1 on rat hypothalamic membranes, radioligand displacement. As to the method: (§1) Membranes were incubated at room temperature for 90 min. Bound and free radioactivity were separated by centrifugation (2 min, 4° C.). Pelleted membranes were washed with assay buffer (0.5 ml, ice-cold), and the membranes were centrifuged as described above. The supernatant was removed, and the radioactivity in the pellet was counted using a γ-counter. […] All curves were constructed with points in triplicate. IC₅₀ values were calculated using the Prism 3 program (GraphPad Software, Inc., San Diego, Calif.).

In assay [2] the target is T1, GLP-1 receptor in rat hypothalamic …. Nature of the assay: competition with [125I]GLP-1 (100 pM) on rat hypothalamic membranes, radioligand displacement. As to the method: as §1

What is called IC50 is the concentration that inhibits the measured activity by half. Low values mean greater potency in that assay, high ones weaker potency in that assay. As for HSQGTFTSDYSKYLDSRRAQDFVQWLMNTKRNKNNIA (Bought from IAF BioChem Pharma) [human oxyntomodulin (OXM)], the “affinity relative to GLP-1” value in assay [1] was ~2 orders of magnitude weaker than GLP-1. The molecule also returned an IC50 in assay [2] of 8.2 nM.
